Reference: US9731036 (dated 2017)

Legend:
Experiment in all cases: flow cytometry on 721.221 transfectants
[1] = biological target: T1, CCM1-RQ43,44SL (CEACAM1 with S and L at positions 43 and 44 instead of R and Q) (human, UniProt P13688 35-526)
T1 construct: whole, on cells; also called CEACAM 1-RQ43,44SL
T1 sequence (looked up): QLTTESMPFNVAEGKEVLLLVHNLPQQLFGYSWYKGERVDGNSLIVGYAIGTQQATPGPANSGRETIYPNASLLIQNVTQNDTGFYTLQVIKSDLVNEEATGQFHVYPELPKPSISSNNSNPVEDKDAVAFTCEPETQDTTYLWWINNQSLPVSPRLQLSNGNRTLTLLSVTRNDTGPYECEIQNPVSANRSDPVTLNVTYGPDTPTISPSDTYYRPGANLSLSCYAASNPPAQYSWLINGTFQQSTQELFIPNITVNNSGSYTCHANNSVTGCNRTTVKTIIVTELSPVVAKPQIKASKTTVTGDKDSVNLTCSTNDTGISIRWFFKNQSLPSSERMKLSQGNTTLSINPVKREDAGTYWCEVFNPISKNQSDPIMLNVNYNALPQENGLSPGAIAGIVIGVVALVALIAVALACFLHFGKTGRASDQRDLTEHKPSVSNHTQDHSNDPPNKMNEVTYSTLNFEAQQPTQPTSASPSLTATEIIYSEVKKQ
Text: (§1) The staining of the secondary reagent FITC-conjugated goat anti-mouse F(ab_)2 of each cell type was used as background (_). The y-axis indicates the median fluorescence intensity (MFI). […] The y-axis indicates the median fluorescence intensity (MFI). […] The E:T cell ratio was 2:1.
(§2) Specificity of CEACAM1 Binding to CEACAM6 is Controlled by the Presence of Both 43R and 44Q Residues To determine whether both residues are required for binding, the amino acid residues in positions 43 and 44 in CEACAM1 (contains 43R44Q) and CEACAM6 (contains 43S44L) were mutated. Using site-directed mutagenesis in the CEACAM1, the 43R residue was changed to 43A (CCM1-R43A) and the 44Q residue was changed to 44L (CCM1-Q44L). In CEACAM6, the 43S was changed to 43R (CCM6-S43R) and 44L was changed to 44Q (CCM6-L44Q). All mutants were generated as described in Materials and Methods and stably transfected into 0.221 cells. The expression level was monitored by Kat4c mAb, and conformation was monitored by 5F4 mAb (FIG. 7A). […] Similar results were obtained when both 44Q and 43R residues in CEACAM1 were mutated (FIG. 5).

[2] = biological target: T2, CEACAM1 protein (CD66a), whole, on cells (human, UniProt P13688 35-526)
T2 construct: whole, on cells; also called CCM1
T2 sequence (looked up): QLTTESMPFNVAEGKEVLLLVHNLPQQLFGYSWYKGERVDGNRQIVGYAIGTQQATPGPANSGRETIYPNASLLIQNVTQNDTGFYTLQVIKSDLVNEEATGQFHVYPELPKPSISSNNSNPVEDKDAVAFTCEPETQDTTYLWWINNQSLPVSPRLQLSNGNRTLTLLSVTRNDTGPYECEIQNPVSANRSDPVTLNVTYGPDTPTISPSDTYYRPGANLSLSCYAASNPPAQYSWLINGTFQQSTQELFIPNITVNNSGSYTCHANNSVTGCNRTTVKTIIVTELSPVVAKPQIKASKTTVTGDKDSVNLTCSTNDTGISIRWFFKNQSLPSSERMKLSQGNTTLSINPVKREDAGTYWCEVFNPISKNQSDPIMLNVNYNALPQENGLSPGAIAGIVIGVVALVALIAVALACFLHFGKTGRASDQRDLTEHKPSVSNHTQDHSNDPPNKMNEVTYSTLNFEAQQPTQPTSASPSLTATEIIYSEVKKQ
Text: as §1, §2

[3] = biological target: T3, CCM6-SL43,44RQ (CEACAM6 with R and Q at positions 43 and 44 instead of S and L) (human, UniProt P40199 35-320)
T3 construct: whole, on cells; also called CEACAM6-SL43,44RQ
T3 sequence (looked up): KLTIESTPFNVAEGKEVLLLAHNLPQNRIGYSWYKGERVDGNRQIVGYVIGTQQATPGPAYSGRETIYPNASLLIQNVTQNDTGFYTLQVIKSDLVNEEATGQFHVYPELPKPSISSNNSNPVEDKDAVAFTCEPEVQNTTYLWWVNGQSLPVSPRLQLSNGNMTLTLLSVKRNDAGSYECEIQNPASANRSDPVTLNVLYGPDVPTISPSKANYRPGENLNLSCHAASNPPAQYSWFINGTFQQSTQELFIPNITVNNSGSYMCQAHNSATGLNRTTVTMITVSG
Text: as §1, §2

[4] = biological target: T4, CEACAM6 protein, whole, on 721.221 cells (human, UniProt P40199 35-320, GPI-anchored to the cell membrane)
T4 construct: whole, on cells; also called CCM6; CD66c
T4 sequence (looked up): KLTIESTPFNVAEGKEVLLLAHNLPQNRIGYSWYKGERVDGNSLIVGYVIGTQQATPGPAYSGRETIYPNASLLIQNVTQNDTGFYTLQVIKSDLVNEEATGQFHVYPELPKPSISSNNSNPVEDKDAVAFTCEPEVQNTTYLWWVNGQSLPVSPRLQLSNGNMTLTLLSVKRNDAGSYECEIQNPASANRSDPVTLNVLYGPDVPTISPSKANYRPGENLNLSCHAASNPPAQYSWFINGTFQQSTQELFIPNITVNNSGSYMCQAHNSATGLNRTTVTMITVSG
Text: as §1, §2

Measured: binding result

B1: CD99-Ig fusion protein (control) (Fc fusion, UniProt P14209 23-122, looked up)
chain: DGGFDLSDALPDNENKKPTAIPKKPSAGDDFDLGDAVVDGENDDPRPPNPPKPMPNPNPNHPSSSGSFSDADLADGVSGGEGKGGSDGGGSHRKEGEEAD
notes: extracellular domain; Made in COS-7 cells, purified on protein G; construct described elsewhere; also called control CD99-Ig; not shown: human IgG1 Fc portion
no binding: [1] | [2] | [3] | [4]
